The text below walks through data of article doi:10.1101/2020.08.16.252742.

In test [1] the target is HIV-1 JR-FL Env glycoprotein (unlabelled) on HIV-1 Gag-GFP pseudovirions (HIV-1 JR-FL). The test is described as follows: single-molecule photobleaching.
In test [2] the target is HIV-1 NL4-3 Env glycoprotein (unlabelled) on HIV-1 Gag-GFP pseudovirions (HIV-1 NL4-3). As to the kind of experiment: single-molecule photobleaching.

For “HIV-1 JR-FL Env glycoprotein (unlabelled) on HIV-1 Gag-GFP pseudovirions (complex)”, in test [1], the stoichiometry N was above 2 Envs.

Turning to “HIV-1 NL4-3 Env glycoprotein (unlabelled) on HIV-1 Gag-GFP pseudovirions (complex)”, the stoichiometry N in test [2] is above 3 Envs.
